Assay [1] addresses Actin of the thin filament in human ventricular myocytes (human (endogenous in ventricular myocytes)) (UniProt P68032). The experiment in a line: autocorrelation function of fluctuations of fluorescence anisotropy (confocal, about 6 molecules); in situ, A-band of isolated EDC-cross-linked myocytes from failing human left ventricles, isometric contraction in contracting solution (5 mM ATP, 0.1 mM CaCl2, pH 7.5); 20 s records, time resolution 10 ms; three-state fit. On the technique in general: Polarisation of emitted light reports the rotation of a fluorescent probe.

The target is the same in assay [2]. The experiment in a line: autocorrelation function of fluctuations of fluorescence anisotropy (confocal, about 6 molecules); in situ, A-band of isolated EDC-cross-linked myocytes from failing human right ventricles, isometric contraction in contracting solution (5 mM ATP, 0.1 mM CaCl2, pH 7.5); 20 s records, time resolution 10 ms; three-state fit.

This note sets out measurements from paper PMC5645524.

As to “Ventricular myosin cross-bridge carrying the exchanged fluorescent LC (from UniProt P12883 1-1935; P05976 1-194; P10916 1-166) (complex)”, the k (DISS) (rate of dissociation of the cross-bridge from the thin filament during contraction) worked out at 2.24 in assay [1] and 2.36 in assay [2].
